Data on 4 sequences can be found in patent US20090304717A1.

Series [1] has as its target PSMA (prostate-specific membrane antigen) (UniProt Q04609). As to the kind of experiment: flow. The note with it: LNCaP cells, on ice, sigmoidal fit.
For series [2] the target is unchanged. As to the kind of experiment: cell_activity. The conditions noted are these: cytotoxicity on LNCaP, no effect on PSMA-negative MCF-7.
The mark [3] stands for this setting: 2'-F pyrimidines (library chemistry).

As a reminder, the Kd is the constant that tells how readily two partners part at equilibrium. High values mean weaker binding, low ones tighter binding. For orientation: EC50 means the concentration that produces a half-maximal response. A higher EC50 goes with lower potency in that assay.

Chain of UniProt Q04609 (Q04609 whole entry): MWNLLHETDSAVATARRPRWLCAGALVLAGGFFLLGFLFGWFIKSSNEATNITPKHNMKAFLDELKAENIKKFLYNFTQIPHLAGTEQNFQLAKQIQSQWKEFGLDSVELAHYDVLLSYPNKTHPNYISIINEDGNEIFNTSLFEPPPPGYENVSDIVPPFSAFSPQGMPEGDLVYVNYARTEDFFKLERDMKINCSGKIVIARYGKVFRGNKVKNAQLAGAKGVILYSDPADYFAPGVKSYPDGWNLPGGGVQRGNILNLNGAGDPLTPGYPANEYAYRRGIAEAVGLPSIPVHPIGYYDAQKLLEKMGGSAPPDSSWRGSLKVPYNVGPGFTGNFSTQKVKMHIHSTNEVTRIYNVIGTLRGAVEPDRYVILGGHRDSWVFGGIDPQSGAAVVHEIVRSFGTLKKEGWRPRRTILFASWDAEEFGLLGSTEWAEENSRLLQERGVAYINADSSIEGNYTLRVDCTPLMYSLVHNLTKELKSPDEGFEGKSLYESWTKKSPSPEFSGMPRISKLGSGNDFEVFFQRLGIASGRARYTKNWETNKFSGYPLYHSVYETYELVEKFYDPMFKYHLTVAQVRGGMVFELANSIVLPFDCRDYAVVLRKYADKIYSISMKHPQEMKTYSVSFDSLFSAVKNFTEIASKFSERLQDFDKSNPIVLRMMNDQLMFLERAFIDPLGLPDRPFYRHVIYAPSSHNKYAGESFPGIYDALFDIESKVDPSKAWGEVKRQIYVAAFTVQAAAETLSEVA

Take “GGGAGGACGAUGCGGAUCAGCCAUGUUUACGUCACUCCUUGUCAAUCCUCAUCGGCAGCGCCAUCAUGGACAAGAAUUGAAGCUUCUUCUUGUCCAUGAUGGCGCGG [xPSM-A-3-siEEF2]”: the Kd in series [1] (setting [3]) stood at 0.0267 µM. Besides, the EC50 in series [2] (setting [3]) was 1.51 µM.

The sequence “GGGAGGACGAUGCGGAUCAGCCAUGUUUACGUCACUCCUUGUCAAUCCUCAUCGGCUAAAAAUUGCGCCAUCAUGGACAAGAAUU / GGGAGGACGAUGCGGAUCAGCCAUGUUUACGUCACUCCUUGUCAAUCCUCAUCGGCAAAAAUUCUUGUCCAUGAUGGCGCGG [PSMA biv anneal siEEF2 (1+2 annealed)]” returned a Kd in series [1] (transcribed with Durascribe T7 kit (kit implies 2'-F pyrimidines)) of 0.0465 µM.

The sequence “GGGAGGACGAUGCGGAUCAGCCAUGUUUACGUCACUCCUUGUCAAUCCUCAUCGGCUAAAAAUUGCGCCAUCAUGGACAAGAAUUAAUUAAGGGAGGACGAUGCGGAUCAGCCAUGUUUACGUCACUCCUUGUCAAUCCUCAUCGGCAAAAAUUCUUGUCCAUGAUGGCGCGGGAGCUCGAAUU [PSMB1-siEEF2]” returned an EC50 in series [2] (transcribed with Durascribe T7 kit (kit implies 2'-F pyrimidines), +/-0.1246) of 0.517 µM.

In the case of “GGGAGGACGAUGCGGAUCAGCCAUGUUUACGUCACUCCUUGUCAAUCCUCAUCGGCUAAAAUUAGGCCUAUCUGCCCGUCAAUUAAAAAUUGGGAGGACGAUGCGGAUCAGCCAUGUUUACGUCACUCCUUGUCAAUCCUCAUCGGCAGCGCCAUCAUGGACAAGAAUUGAAGCUUCUUCUUGUCCAUGAUGGCGCGGAAAAAAAUUGACGGGCAGAUAGGCCUUUGAGCUCGAAUU [PSMB2-siEEF2]”, the EC50 in series [2] (transcribed with Durascribe T7 kit (kit implies 2'-F pyrimidines), +/-0.01282) amounted to 0.211 µM.
